# Results from the DeepSol protein solubility set.
# Test: soluble on expression in E. coli; label from the status in PepcDB or PDB records
row,Sequence,soluble on expression in E. coli
1,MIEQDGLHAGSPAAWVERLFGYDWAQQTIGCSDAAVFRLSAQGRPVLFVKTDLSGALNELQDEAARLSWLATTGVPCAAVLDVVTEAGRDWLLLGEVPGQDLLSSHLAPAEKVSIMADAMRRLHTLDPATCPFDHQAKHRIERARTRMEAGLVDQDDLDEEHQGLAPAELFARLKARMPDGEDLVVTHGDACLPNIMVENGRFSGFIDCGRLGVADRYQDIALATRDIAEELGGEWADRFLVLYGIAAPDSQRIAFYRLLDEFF,soluble
2,MIEQPSPKVYDELLSIWEEAVRSTHHFLTEADIQFYKPLIRHEYLAAVRLYIIREDSGTIAAFMGLSNDCIEMLFVRPNAHGHGYGSRLVEFAIRKKRIYKVDVNEQNAAALGFYLHMGFETTGRDALDATGKPFPILHLQIPPIRLRKATLEDIDLLRTLFTQSVQNTCSTDYNRLQIQAWTGRGTLQRWHELFQSDLYFLLAEDSRKSQVAGFTSVNSKGYLHSMFVHPDYQRQGIASRLLLKAEEYVRIRQGVSVYSEVSITARPFFEKHGYSIEKEQTVSVGDIEMTNFLMYKRI,not soluble
3,MIERVKGTRDFLPEDMAKRRWVFEKIREVFEAYGFKEILTPVMEYTKLFQLRSGEEVVKQLYAFKDKGGRDVSLRPDMTSSVARLYVNSFQMAPKPIKWYYIANMFRYEEPQSGRYREFWQAGVELIGSDKVEADAEVIALFVESYLSTGLRDFTVNIGDRILLDEFAGMLGVSDDIGLMRIIDKRDKLSQEEFINLLKEFGLGESEIEKVLELVEIKGRPDNVLPLAEELFKSKKAKEEISKLYKLTDLLEWYGVKDWIRIDLGIARGFDYYTSIVFEAISPNELGIGSIGGGGRYDNLIEIFGGKPTPATGFAIGIERLLPILEWKGLIPKPQTGPEVFVIPLKDMEKVAINIAVKLRREKIKTDIELSGRKLGKALDYANRVGAKLVIIVGKRDVERGVVTIRDMESGEQYNVSLNEIVDKVKNLLKR,soluble
4,MIERYSRPEMSAIWTDENRFQAWLEVEILACEAWAELGVIPKEDVKVMRENASFDINRILEIEKDTRHDVVAFTRAVSESLGEERKWVHYGLTSTDVVDTALSYLLKQANDILLKDLERFVDIIKEKAKEHKYTVMMGRTHGVHAEPTTFGLKLALWHEEMKRNLERFKQAKAGIEVGKISGAVGTYANIDPFVEQYVCEKLGLKAAPISTQTLQRDRHADYMATLALIATSIEKFAVEIRGLQKSETREVEEFFAKGQKGSSAMPHKRNPIGSENMTGMARVIRGYMMTAYENVPLWHERDISHSSAERIILPDATIALNYMLNRFSNIVKNLTVFPENMKRNMDRTLGLIYSQRVLLALIDTGLTREEAYDTVQPKAMEAWEKQVPFRELVEAEEKITSRLSPEKIADCFDYNYHLKNVDLIFERLGLA,soluble
5,MIFLNRERKGETNDHFDVNRVKFDDLGIPQDTGGLNRIRFKGENLGIMPTQLGHITPWLYRHFEYAYHVALQFNQHQKFQKLQKLRKLQKELPIAERAGEIVELLKTNQVLIVAGDTGCGKSTQVPQYLLKAGFTGVACTQPRRIACTALARRVAYETLNQYGSEVAFQIRFETTKSQKTKLLFLTEGLLLRQMEKDSLLEKYNVIILDEVHERHLTSDLLIGLLRDLCTKRDDLKLILMSATINLDLFKGYFEGAPVVQVPGRLFPIDVRWHPIKQFIDQSDKKTHKIDPEPYLKILELIDKQFPSTQRGDALIFLNGVAEISMVAEHLKNYAELTNGWIILMLHSTLSVEEQDKVFDQAPVGIRKCILSTNVAETSVTIDGIRFVIDSGKVNLIKHEPGTGTQKLTEFWVSKASANQRKGRAGRTGPGICYRLYSQEQFEKMDDFTVSEINRVSLQEMALKMISLNLGLDPRTFPFIEKPSEDVLNEGLEVLKFQRVLRSDRGDILTLTALGNMVSKLPVEVPIAKMLVYGCVVDELEVMLTVAAGLSVQSPFTNRSYRELEIVERRASLTSPLGDPFTLISIFREWVLQKAFEGTARRWTMENGIDEHRLYEISKLRAQYRQILEDAGLVEKASAAETGEDDSRQRRIDQGEKRKLFDLKKSQRNNDRRQKVLNANKHFDKILEDKEEEDLEAEKDPLKADVKTVEFLLSHKQRDVENIRKTHKISRKTAEVVRVIIAAGLYPNFSILDPVNKYGYGQEMFTHTRLKPFTQIHPNSSIAQYHPETIDPRQGSDGFSRLHQIPFYGLLLETTKPYICNVMPVPAVYTLLVAQKIVIEDDWSQLSIDDFLELRFRSSTDCRSVLLDAKEIRYELTKGLAAKLVGEAGFSGRRRLAKYIDLLNQSIVEKGIEVAVRRNVHPPKVLTGIGIHSPDGGIDKEEDVDDLVQRFERDQEPVHSAREEELEDQKVLDELRADVMCPPTRDMIEEAEKLKELKKKEIPKESYYEKLLKRQKAKEDDEKTEKKPKLEPLDTMEE,soluble
6,MIFRFGFVSNAMSLWDASPAKTLTFARYSKLSKTERKEALLTVTKANLRNTMRTLHYIIGHGIPLYRFSSSIVPLATHPDVMWDFVTPFQKEFREIGELVKTHQLRTSFHPNQFTLFTSPKESVTKNAVTDMAYHYRMLEAMGIADRSVINIHIGGAYGNKDTATAQFHQNIKQLPQEIKERMTLENDDKTYTTEETLQVCEQEDVPFVFDFHHFYANPDDHADLNVALPRMIKTWERIGLQPKVHLSSPKSEQAIRSHADYVDANFLLPLLERFRQWGTNIDFMIEAKQKDKALLRLMDELSSIRGVKRIGGGALQWKS,not soluble
7,MIFTSGANKLNDNRNVRTKISSNRQSIKTAPTKAAEIPEYLQLYQTPPGDDISLTEFDDIAMERLKLLKSFENLKDSVSLYNDEFKDKFRKLCDGTKLIVFPDQKPPHQEEVYELWRRDNIGHFILRLAFCRTPENQKWLTQIEGDFLRFRLRQEREQVLDSALANVNFTIEKLGYTEKQAMIEDLEAACQFNLFEAPNKTFYKVDFIDAIELIRRGSVHLKKGFAYFPFDDLVTILVTKMKNNMMAAMARSFKHLAILEEEGRLLPRLSLLSNNAYSGKDYNGEQPDGSIIVTRHMIDKLSRRSFAPCMKQMHNHLRVNHHLKYGARRQYGLFLKGIGLSLDEAIAMMRDEFTKKITSDKFDKEYGYNIRYMYGKEGRRVAQTAMSCATIILRNPPSAVDCHGCPFRHSEKQVLKQKLGSDAILKKEQIERIAELAELNQYDKACTRYFEFMHNLEEGGLGQLITHPNQFYEESQKIVAERIAAKQESQEAPAPKIEKMDTE,not soluble
8,MIGAILAGGYGKRLKPITDSIPKALVEIKDNYTIMDRQLFDFSIMGIEAVYILSGYLGNKIEERYGSRYRDMNIYYLREEKPLGTLYSLRNLIDEVKDDDIVLRNGDTVTDVNFLNFLKKAQDQKYYITMYVTRMKSPFGIVETFGDQIVQFREKPELNHYINAGLYYIKSDAFPYFFEKYIDRDLETTVFPRMAREGLIGSYTEEAMWIGIDSEKDLERIRADYRNREDYPWGYLKVLYDDDRSRLLEYAIKAGSDTEIDCGDGCILRIQSGLGTFGDSSDEKFRNGDVRSISGKVRVNAFENTRLELIISKKLEHHHHHH,soluble
9,MIGIVAAFEKVKIPEMGKSFGTGWLPPLPSLKDYTEESAQIPEMAEKLGIPTSRKETKTLELPVSIDFRNWCSPIEDQMDLGSCTAHAGVGVVEYFERRAFGKHIDGSRFFVYKTTRNLMGVKGDTGAWLRNTMGALALCGVPPEKYFPYTSRKTPGPDGEPTFDDEPSSFVYSLADNFEALNYFCHDPQGMNLPPEDVILSVKKYLAAGIPSMFGFYGFPSFKDTDVKGGIPFPGPDERSIWGHAVVAVGYDDNMKIRNTLSNKETTGAFLIRNSWGTAWGDKGYGWLPYEYALNKFALDFWSLISMKWVETGNFGLELESSRSRARETLSRDMPLPHALEHHHHHH,soluble
10,MIGRNRYAMLTVDTEALPKRAVQDHIKRLMWGEHDGGCAGIREMCAIGNECGVKQVFFVDMCGAYACLDQTLDVVRWLDQDGQDVQLHAHPEYLPEQFWKEHGFKYRPRFLNQYGIEKATFTIKYFGKLISDLTGKPLRAFRAGSFRWNADTLRALQEAGVSLSFNNSMNARLKGQCTYSEPTNHSYLWSNGVIEVPVTERKFFPLFGKEWWGRLQFPVGDWLGSPPWRVLRPYTVGADPSFLVVLLHSWSLLYWDKDGYAVYRDDKRIEDYRKLVRRLARDYDIITTADFLDLYACGKIKTTHTADLSLAEFKAVKKLEHHHHHH,not soluble
11,MIHIDKNVRTSGAYVMYKNSFVFQVGPTSKGDTLGVVRLGGHKEADETAVETAKREVEEEASIDITILNSPTTYYKEYWNAQSKKLKVENKVNPILIIDSPDESLSIMYVAYSKMQPKPSSETKGLLLLSLNDIELICTGKITLNDYINQGGVSILKEKMDKELILQPFPQLMFLSELLKEDPVLLQQFLNLEHHHHHH,soluble
12,MIHSMTAFSRIQKQFDVGDFCWEIRSVNHRYLDVSFRLPESFRFLEAELRTLLRDKIHRGKLECHLKYKDTSCDNRSMLINIGTINALLDLSSKLSASHHLANDMTVSQVLSWPGVVEANLLDMEELSQIALELFQKSIDKLCEVRAGEGRSLKAYVEDRLQALRQEVMKSKSIVVSMSAKTKDKLLTRLHELQMDVPEARVEQEIALLLAKLDVSEELDRLETHIAEVSRTLNAEKVTGRRLDFLMQELNREANTLSSKSDSAELTLCAVEMKVLIEQMREQIQNFE,not soluble
13,MIHYRMDQPDRVRCSVCGGIADEVDETYPEEGDFILVIYRCRDCGHLEKRQYGKPVKIID,not soluble
14,MIINLVKQLGTTRGYITLWTGIDSAIAALAVQGIASHRTQQYIDEYYPNIGGPLLNQDKEEDELTDAESFRRVIRNGFRDSVIRVVAVTAARPFAVCFARQVAQVIGNETKYTTCAQALAVIGKQEGPGGLFSGLAPQIVGELLVIWGVHLITHGIQRAILRIEFGDTKNKDETKAKAAKDVHKFIHTAVPFLVNSFGYPYSVVSTVMAVAGSGLAVSFLPYSPSFNNWHGAWDYLRPIGLKRGNRLFLREQVGAVTVGVDQQLYASNSYFA,not soluble
15,MIIQNEFNLYPSNMLPERFCYPEKYVRISNDTSLIPYIQPHNFHWWFENYGTEGAEVAYIFRNSILPDLNLIPFASNGEWEAYFDGNDVTGNSRVIVINLDNIENHEFFNSFEDWLELAIKDTW,not soluble
16,MIIRPERQGDEEAIARVTEDAFRNVEHRSGTEQLIVARLRDAGALTVSLVAEDSEGIIGHVGFSPVTLSSGETGWFCLAPLSVTPERQGEGVGSRLARDGLAVLERLSAAGCVVVGDPAYYGRFGFRPVAGLSAEGIPDEYFTVLRLHGGTPSGIVGFHPGFDGDNA,not soluble
17,MIIYFIGTGGSEGIPVHLCDCNTCNEARKFRFAQRRPSTLAVIGENGEVILFDVGTDIREFLNVPLDAIFLTHWHHDHIYGLYKLRWIARETNLYAPEGHADALILQDPKNLRPKIIKAGEKIRIGDIKVTSVKLNHQIETLGYIIEEDGKRVAILYDTKGLPPETREYLEDISPLRVAIVDATYPPGFVDPYHNNVNEAVEMSIDIAERIVLSHISHKNLPFLKLVNYTRKMWGGKVLVAYDGMVFYV,soluble
18,MIKIAITKGRIQKQVTKLLENADYDVEPILNLGRELQIKTKDDLQIIFGKPNDVITFLEHGIVDIGFVGKDTLDENDFDDYYELLYLKIGQCIFALASYPDFSNKNFQRHKRIASKYPRVTKKYFAQKQEDIEIIKLEGSVELGPVVGLADAIVDIVETGNTLSANGLEVIEKISDISTRMIVNKSSFKFKKDKIIEMVERLEDAQTN,soluble
19,MIKIGAHMPISKGFDRVPQDTVNIGGNSFQIFPHNARSWSAKLPSDEAATKFKREMKKHGIDWENAFCHSGYLINLASPKDDIWQKSVELLKKEVEICRKLGIRYLNIHPGSHLGTGEEEGIDRIVRGLNEVLNNTEGVVILLENVSQKGGNIGYKLEQLKKIRDLVDQRDRVAITYDTCHGFDSGYDITKKEGVEALLNEIESLFGLERLKMIHLNDSKYPLGAAKDRHERIGSGFIGEEGFAVFFSFKEIQEVPWILETPGGNEEHAEDIKKVFEIIEKFGIEVD,soluble
